This note sets out measurements from US20260201032A1 (UNIVERSITAT DE BARCELONA, published 2026).

The target of the experiment is T1, CD229 hDI/DIII/DIV mDII (human; mouse, UniProt Q9HBG7 48-158; Q01965 159-249; Q9HBG7 251-655, limits assumed).
T1 construct: domain: DI;domain: DII;domain: DIII/DIV; Expressed on transiently transfected COS cells; also called chimeric mouse human molecule where the second Ig domain of Ly9 was substituted the corresponding mouse domain
T1 sequence (looked up): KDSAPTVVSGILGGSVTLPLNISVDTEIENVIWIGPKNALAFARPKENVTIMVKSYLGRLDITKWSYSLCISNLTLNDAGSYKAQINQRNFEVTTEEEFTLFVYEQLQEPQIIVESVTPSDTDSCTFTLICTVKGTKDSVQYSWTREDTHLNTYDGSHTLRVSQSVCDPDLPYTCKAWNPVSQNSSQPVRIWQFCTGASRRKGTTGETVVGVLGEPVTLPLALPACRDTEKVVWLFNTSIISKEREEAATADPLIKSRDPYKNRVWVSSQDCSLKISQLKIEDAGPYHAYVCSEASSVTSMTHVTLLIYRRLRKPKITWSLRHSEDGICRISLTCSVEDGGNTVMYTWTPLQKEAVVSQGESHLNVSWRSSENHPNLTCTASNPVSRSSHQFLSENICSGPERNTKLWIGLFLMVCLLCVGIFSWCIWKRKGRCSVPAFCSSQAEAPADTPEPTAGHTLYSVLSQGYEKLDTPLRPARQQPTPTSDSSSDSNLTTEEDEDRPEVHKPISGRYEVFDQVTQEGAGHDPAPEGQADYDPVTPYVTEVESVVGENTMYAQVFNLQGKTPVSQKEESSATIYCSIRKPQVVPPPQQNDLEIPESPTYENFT
The experiment is described as follows: flow cytometry on transiently transfected COS cells. The text has this: The mapping to the first or second domain was done as described in Romero et al 2005. Three different human Ly9 constructs were used: full-length human Ly9, a Ly9 isoform that […] and a chimeric mouse human molecule where the second Ig domain of Ly9 was substituted the corresponding mouse domain. The transfected cells were stained with different anti-human antibodies using flow cytometry.
^aCOS cells were transiently transfected with chimeric human (h)/mouse (m) constructs or the isoform lacking the first V-like Ig domain (CD229 ΔDI) described in Materials and Methods. CD229 mAbs were assayed by flow cytometry: +, Detection of protein expression, −, nondetection of protein expression. ^bDomain recognized by the mAb.
For orientation: A flow cytometer gives signals particle by particle.

B1: HLy9.1.84 (antibody, V domains shown)
VH: QMQLQESGPELVKPGASVKISCKASGYTFTHYYINWVQQRPGQGLEWIGWIFPESGSTYYSEKFKAKATLTVDKSSSTAYMLLSSLTSEDSAVYFCARGTGFFDYWGQGTTLTVSS
VL: QIVLTQSPAIMSASPGEKVTVTCSASSSVSYMFWYQQKPGFSPRLLIYDTSNLASGVPVRFSGSGSGTSYSLTISRMEAEDAATYYCQQWSSYPPTFGGGTKLEIK
notes: also called HLy91.184
Take B1: the binding result was “no binding”.
